Legend:
Conditions in all cases: 20 nM; 72 h
MCF10A [1] = experiment: one-nucleolus phenotype percent effect (relative to siNT 0% and siNOL11 100%); higher = more cells with one nucleolus (ribosome biogenesis inhibition)
Procedure: (§1)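 After 72 h, cells were fixed and stained with Hoechst and anti-fibrillarin, and nucleoli per nucleus were counted with CellProfiler. Values are plate-adjusted percent effect for the one-nucleolus and 5+ nucleoli phenotypes, normalised to siNT (0%) and to the positive controls siNOL11 or siKIF11 (100%), as the mean of biological triplicates. Percent viability is the nuclei count relative to siNT.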

MCF10A [2] = experiment: 5+ nucleoli phenotype percent effect (relative to siNT 0% and siKIF11 100%); higher = more cells with five or more nucleoli
Procedure: as §1

MCF10A [3] = experiment: percent viability (nuclei count relative to siNT); higher = more viable cells
Procedure: as §1

| Sequence | one-nucleolus phenotype percent effect (MCF10A [1]) | 5+ nucleoli phenotype percent effect (MCF10A [2]) | percent viability (MCF10A [3]) |
| --- | --- | --- | --- |
| CAGGAUCCACAGAGCUAGUCCA [hsa-miR-4661-3p] | 7.03% | -16% | 31.4% |
| CGGGCGUGGUGGUGGGGGUG [hsa-miR-1268b] | 8.5% | 35.6% | 36.5% |
| CUGGGGAGUGGCUGGGGAG [hsa-miR-6763-5p] | 30.5% | -2.28% | 29.7% |
| UGAGGUAGUAGGUUGUAUAGUU [hsa-let-7a-5p] | -24.4% | 61.1% | 29.1% |
| UUCUCAAGGAGGUGUCGUUUAU [hsa-miR-513c-5p] | 19.8% | 3.99% | 30% |
| GGCUCAAUCUCUGGUCCUGCAGCC [hsa-miR-7158-5p] | -21.5% | 25.6% | 132% |
| AGUGGGGUGGGACCCAGCUGUU [hsa-miR-6742-5p] | 43.2% | -35.4% | 21.8% |
| CACUGUGGGUACAUGCU [hsa-miR-4318] | 65.2% | -33% | 35.1% |
| GAAUACGUCUGGUUGAUCC [hsa-miR-6082] | -25.8% | 67.8% | 186% |
| UCCCAAGGGUGAGAUGCUGCCA [hsa-miR-6814-5p] | 7.66% | -13.3% | 48.6% |
| GAGGGCAGCGUGGGUGUGGCGGA [hsa-miR-4632-5p] | 0.575% | 13.1% | 64.3% |
| AGGUUGUCCGUGUUGUCUUCUCU [hsa-miR-494-5p] | 3.91% | 18.5% | 22.3% |
| CCUCCCUGCCCGCCUCUCUGCAG [hsa-miR-7113-3p] | -20.6% | 57.3% | 70.5% |
| UGACUCUGCCUGUAGGCCGGU [hsa-miR-4522] | 23.6% | -19.6% | 16.2% |
| AAAAGUAAUUGCGGUUUUUGCC [hsa-miR-548o-5p] | -26.8% | 43.1% | 119% |
| UCCAGGGAGACAGUGUGUGAG [hsa-miR-7113-5p] | 23.5% | -2.05% | 32.5% |
| CUGGGUUGGGCUGGGCUGGG [hsa-miR-4507] | -1.41% | -11.1% | 28.4% |
| AGAGGCUGAGAAGGUGAUGUUG [hsa-miR-6884-5p] | 41.6% | -24.7% | 22.3% |
| CCUGGGGACAGGGGAUUGGGGCAG [hsa-miR-8089] | -19.7% | 40.1% | 93.2% |
| UUGAGGGGAGAAUGAGGUGGAGA [hsa-miR-6734-5p] | -5.42% | 2.95% | 35% |
| AUAACAUUGUAAAGCGCUUCUUUCG [hsa-miR-3143] | -38.3% | 49% | 68.7% |
| UGGGUAGAGAAGGAGCUCAGAGGA [hsa-miR-3132] | 1.88% | 62.9% | 21.4% |
| CUCGAGUUGGAAGAGGCG [hsa-miR-4444] | 19.6% | -29.6% | 109% |

| Sequence | one-nucleolus phenotype percent effect (MCF10A [1]) | 5+ nucleoli phenotype percent effect (MCF10A [2]) | percent viability (MCF10A [3]) |
| --- | --- | --- | --- |
| UGAGUGUGUGUGUGUGAGUGUGU [hsa-miR-574-5p] | 3.74% | -4.79% | 42% |
| CUCGUGGGCUCUGGCCACGGCC [hsa-miR-3677-3p] | -2.83% | -9.65% | 56.2% |
| GUUGGGGUGCAGGGGUCUGCU [hsa-miR-5572] | 43.3% | -19.8% | 19.7% |
| UUCAGCCAGGCUAGUGCAGUCU [hsa-miR-3157-5p] | 7.66% | -4.24% | 20.1% |
| GCGCUGACCCGCCUUCUCCGCA [hsa-miR-6825-3p] | -15% | 45.7% | 108% |
| UUAGGCCAUCAUCCCAUUAUGC [hsa-miR-5704] | -23.2% | 46.5% | 181% |
| CUCUAGAGGGAAGCGCUUUCUG [hsa-miR-519a-5p] | -15.1% | -2.96% | 56.5% |
| UAAGGAGGGGGAUGAGGGG [hsa-miR-6891-5p] | -7.18% | -18.8% | 51.8% |
| ACAGGCACGACUGGUUUGGCA [hsa-miR-6715b-5p] | 54.7% | -27.8% | 14.8% |
| UGGGGAAGGCUUGGCAGGGAAGA [hsa-miR-6780b-5p] | 38% | -35.6% | 25.6% |
| CCAGAGCAGCCUGCGGUAACAGU [hsa-miR-6501-3p] | 1.17% | -17.2% | 35.1% |
| GUCCUAGGAGGCUCCUCUG [hsa-miR-5571-3p] | 6.57% | -30% | 66.3% |
| AAAGGUAACUGUGAUUUUUGCU [hsa-miR-548ba] | -24.2% | 38.2% | 146% |
| UGGGGCUCAGCGAGUUU [hsa-miR-4283] | 24.3% | -10.7% | 17.3% |
| UCAGCUACUACCUCUAUUAGG [hsa-miR-5690] | -20.3% | 15.5% | 105% |
| UGAAACUGGAGCGCCUGGAGGA [hsa-miR-4738-3p] | 26.9% | -20.8% | 28.6% |
| CCUGCGUGUUUUCUGUCCAA [hsa-miR-4520a-5p] | 3.67% | -4.05% | 52.7% |
| AGGGGGAAAGUUCUAUAGUCC [hsa-miR-625-5p] | 21.3% | -16.9% | 12.6% |
| CAGUGCAAUGUUAAAAGGGCAU [hsa-miR-130a-3p] | -19.9% | 49.2% | 120% |
| CUAAGAAGUUGACUGAAG [hsa-miR-3653] | 49.1% | -37.5% | 42% |
| ACCUUCCUCUCCAUGGGUCUUU [hsa-miR-3667-3p] | 18.2% | -21.3% | 32% |
| UUGGGGAUUGGGUCAGGCCAGU [hsa-miR-6857-5p] | 29.9% | -18% | 6.01% |
